Laboratory results reported in patent US20190134153A1, “IMMUNOMODULATORY EFFECT OF INHALED KINASE INHIBITOR PEPTIDES IN LUNG” (MOERAE MATRIX, INC., priority 2017, published 2019).

How the values were obtained:
Experiment in all cases: Kinase Profiling Assay
Type in all cases: biochemical
Conditions in all cases: 100 μM
CK1δ(h) = CK1δ(h) (Homo sapiens, UniProt P48730)
cKit(D816V)(h) = cKit(D816V)(h) (Homo sapiens, UniProt P10721, D816V)
DDR2(h) = molecular target: T1, DDR2(h) (Homo sapiens, UniProt Q16832)
T1 sequence (Q16832 22-855): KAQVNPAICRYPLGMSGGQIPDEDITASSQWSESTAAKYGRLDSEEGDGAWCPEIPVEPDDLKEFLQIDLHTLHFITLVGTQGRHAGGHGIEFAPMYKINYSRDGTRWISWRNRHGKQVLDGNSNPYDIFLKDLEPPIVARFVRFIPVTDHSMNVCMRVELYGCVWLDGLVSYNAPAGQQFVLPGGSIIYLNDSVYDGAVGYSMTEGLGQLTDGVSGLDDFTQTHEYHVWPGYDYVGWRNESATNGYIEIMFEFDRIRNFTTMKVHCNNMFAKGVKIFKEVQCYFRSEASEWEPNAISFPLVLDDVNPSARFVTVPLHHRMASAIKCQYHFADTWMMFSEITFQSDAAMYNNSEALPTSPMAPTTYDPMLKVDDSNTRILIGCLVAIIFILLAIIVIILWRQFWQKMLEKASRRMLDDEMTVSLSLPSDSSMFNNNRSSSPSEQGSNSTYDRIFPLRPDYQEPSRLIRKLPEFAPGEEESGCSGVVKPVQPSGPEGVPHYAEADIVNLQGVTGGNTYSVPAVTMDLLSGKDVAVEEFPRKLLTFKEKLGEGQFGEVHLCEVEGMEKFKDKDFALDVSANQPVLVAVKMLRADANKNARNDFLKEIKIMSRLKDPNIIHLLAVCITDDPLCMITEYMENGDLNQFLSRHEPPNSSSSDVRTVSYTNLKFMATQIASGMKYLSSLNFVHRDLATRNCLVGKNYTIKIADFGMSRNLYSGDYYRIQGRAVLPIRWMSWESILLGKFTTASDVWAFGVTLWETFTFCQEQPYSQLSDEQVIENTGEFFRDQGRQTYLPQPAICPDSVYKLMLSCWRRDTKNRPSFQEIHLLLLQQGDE

Fgr(h) = Fgr(h) (Homo sapiens, UniProt P09769)
Flt1(h) = Flt1(h) (Homo sapiens, UniProt P17948)
Mer(h) = molecular target: T2, Mer(h) (Homo sapiens, UniProt Q12866)
T2 sequence (Q12866 21-999): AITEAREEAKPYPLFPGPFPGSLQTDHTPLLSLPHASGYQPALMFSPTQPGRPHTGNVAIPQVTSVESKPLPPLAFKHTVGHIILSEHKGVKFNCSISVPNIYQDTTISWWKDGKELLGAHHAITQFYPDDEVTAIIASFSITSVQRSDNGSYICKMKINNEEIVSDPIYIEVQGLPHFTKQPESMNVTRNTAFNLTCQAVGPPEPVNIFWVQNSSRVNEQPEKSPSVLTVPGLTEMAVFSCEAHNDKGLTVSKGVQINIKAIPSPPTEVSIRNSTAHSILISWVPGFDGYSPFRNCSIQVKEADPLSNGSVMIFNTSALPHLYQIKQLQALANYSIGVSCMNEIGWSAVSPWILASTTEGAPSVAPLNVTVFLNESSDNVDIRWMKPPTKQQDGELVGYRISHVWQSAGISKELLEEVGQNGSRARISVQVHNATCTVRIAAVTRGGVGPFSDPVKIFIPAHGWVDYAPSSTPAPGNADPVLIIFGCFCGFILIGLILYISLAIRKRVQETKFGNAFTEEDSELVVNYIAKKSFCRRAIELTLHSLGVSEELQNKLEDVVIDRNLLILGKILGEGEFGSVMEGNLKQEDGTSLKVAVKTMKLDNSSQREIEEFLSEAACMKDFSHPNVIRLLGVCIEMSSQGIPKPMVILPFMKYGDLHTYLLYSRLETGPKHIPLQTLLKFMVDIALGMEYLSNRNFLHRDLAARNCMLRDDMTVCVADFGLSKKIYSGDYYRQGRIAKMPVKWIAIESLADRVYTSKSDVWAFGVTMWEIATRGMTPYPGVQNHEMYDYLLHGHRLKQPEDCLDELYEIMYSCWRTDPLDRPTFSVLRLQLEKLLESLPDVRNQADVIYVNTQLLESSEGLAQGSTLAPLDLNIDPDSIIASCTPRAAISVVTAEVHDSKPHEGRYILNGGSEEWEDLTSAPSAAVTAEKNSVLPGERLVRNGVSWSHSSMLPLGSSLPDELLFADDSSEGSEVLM

PAK5(h) = PAK5(h) (Homo sapiens, UniProt Q9P286)
PKCδ(h) = PKCδ(h) (Homo sapiens, UniProt Q05655)
PRK2(h) = PRK2(h) (Homo sapiens, UniProt Q16513)
SAPK2a(T106M)(h) = SAPK2a(T106M)(h) (Homo sapiens, UniProt Q16539, T106M)
SIK(h) = SIK(h) (Homo sapiens, UniProt P57059)
Tie2(Y897S)(h) = Tie2(Y897S)(h) (Homo sapiens, UniProt Q02763, Y897S)
WNK2(h) = WNK2(h) (Homo sapiens, UniProt Q9Y3S1)

Sequence of PKCδ(h) (Q05655 whole entry): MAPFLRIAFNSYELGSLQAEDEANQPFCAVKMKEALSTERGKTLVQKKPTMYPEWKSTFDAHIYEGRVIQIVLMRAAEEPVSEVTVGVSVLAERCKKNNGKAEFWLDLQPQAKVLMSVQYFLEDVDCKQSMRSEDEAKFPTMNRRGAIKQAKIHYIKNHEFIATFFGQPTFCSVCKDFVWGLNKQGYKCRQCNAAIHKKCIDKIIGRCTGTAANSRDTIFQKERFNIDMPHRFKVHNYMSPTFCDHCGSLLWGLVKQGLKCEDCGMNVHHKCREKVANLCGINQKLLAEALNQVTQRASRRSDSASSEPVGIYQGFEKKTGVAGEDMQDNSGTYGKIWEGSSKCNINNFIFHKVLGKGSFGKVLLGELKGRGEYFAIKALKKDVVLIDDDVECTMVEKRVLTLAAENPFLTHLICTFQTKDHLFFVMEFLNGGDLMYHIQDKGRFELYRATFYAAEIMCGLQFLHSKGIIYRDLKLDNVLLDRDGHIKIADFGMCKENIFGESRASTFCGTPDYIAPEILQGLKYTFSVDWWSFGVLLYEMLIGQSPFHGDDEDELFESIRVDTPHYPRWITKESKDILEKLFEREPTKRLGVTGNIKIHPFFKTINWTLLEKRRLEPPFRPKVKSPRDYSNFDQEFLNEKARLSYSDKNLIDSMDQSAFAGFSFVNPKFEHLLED
Sequence of SIK(h) (P57059 whole entry): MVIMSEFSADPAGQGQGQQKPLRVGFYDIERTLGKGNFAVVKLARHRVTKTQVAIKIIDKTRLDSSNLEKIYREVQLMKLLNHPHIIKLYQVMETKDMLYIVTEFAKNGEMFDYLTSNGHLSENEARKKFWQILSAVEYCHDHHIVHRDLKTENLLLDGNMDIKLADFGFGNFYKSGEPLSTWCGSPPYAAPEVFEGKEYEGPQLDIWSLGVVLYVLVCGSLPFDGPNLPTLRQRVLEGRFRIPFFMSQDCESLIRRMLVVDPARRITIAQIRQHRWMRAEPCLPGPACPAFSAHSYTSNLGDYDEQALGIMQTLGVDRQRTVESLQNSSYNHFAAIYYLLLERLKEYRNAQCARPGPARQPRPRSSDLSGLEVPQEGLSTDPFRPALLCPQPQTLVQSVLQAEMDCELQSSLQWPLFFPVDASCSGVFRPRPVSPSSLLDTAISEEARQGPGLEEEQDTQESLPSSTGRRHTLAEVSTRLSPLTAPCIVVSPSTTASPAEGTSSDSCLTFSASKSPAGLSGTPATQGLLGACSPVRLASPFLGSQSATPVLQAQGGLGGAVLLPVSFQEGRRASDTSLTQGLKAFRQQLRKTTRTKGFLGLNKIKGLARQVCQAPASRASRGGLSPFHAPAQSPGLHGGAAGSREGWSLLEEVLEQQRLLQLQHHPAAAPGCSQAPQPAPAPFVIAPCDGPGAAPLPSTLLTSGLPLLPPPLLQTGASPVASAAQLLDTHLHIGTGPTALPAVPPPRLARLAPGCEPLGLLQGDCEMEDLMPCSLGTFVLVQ
Sequence of PAK5(h) (Q9P286 whole entry): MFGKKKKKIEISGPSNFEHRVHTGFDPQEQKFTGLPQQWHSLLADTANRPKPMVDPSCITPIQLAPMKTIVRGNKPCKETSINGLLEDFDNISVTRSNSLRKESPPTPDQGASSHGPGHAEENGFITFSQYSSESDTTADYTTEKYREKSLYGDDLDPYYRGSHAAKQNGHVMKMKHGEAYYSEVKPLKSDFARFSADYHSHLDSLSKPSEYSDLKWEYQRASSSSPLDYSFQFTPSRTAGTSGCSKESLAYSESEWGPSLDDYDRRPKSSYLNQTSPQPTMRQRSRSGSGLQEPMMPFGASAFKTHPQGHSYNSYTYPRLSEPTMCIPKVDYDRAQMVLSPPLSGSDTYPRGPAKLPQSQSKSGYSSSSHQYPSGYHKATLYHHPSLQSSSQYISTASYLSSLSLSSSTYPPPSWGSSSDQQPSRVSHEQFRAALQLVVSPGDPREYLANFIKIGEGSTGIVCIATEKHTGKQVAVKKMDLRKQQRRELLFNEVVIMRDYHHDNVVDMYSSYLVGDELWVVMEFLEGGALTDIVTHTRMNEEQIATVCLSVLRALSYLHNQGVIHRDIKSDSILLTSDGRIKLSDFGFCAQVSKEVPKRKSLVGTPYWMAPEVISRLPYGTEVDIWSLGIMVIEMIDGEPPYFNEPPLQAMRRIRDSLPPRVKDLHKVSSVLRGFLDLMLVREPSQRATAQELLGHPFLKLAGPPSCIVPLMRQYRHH
Sequence of CK1δ(h) (P48730 whole entry): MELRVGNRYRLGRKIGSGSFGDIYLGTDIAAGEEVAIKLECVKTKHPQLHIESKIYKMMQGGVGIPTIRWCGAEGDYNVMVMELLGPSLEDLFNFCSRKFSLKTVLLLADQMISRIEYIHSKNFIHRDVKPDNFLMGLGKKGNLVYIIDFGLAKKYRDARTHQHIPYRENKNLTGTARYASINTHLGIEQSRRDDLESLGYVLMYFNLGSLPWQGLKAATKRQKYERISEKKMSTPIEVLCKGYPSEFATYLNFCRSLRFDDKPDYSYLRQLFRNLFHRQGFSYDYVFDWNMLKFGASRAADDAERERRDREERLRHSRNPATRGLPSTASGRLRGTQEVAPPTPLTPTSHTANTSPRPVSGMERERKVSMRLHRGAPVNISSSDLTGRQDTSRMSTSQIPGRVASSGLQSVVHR
Sequence of Flt1(h) (P17948 27-1338): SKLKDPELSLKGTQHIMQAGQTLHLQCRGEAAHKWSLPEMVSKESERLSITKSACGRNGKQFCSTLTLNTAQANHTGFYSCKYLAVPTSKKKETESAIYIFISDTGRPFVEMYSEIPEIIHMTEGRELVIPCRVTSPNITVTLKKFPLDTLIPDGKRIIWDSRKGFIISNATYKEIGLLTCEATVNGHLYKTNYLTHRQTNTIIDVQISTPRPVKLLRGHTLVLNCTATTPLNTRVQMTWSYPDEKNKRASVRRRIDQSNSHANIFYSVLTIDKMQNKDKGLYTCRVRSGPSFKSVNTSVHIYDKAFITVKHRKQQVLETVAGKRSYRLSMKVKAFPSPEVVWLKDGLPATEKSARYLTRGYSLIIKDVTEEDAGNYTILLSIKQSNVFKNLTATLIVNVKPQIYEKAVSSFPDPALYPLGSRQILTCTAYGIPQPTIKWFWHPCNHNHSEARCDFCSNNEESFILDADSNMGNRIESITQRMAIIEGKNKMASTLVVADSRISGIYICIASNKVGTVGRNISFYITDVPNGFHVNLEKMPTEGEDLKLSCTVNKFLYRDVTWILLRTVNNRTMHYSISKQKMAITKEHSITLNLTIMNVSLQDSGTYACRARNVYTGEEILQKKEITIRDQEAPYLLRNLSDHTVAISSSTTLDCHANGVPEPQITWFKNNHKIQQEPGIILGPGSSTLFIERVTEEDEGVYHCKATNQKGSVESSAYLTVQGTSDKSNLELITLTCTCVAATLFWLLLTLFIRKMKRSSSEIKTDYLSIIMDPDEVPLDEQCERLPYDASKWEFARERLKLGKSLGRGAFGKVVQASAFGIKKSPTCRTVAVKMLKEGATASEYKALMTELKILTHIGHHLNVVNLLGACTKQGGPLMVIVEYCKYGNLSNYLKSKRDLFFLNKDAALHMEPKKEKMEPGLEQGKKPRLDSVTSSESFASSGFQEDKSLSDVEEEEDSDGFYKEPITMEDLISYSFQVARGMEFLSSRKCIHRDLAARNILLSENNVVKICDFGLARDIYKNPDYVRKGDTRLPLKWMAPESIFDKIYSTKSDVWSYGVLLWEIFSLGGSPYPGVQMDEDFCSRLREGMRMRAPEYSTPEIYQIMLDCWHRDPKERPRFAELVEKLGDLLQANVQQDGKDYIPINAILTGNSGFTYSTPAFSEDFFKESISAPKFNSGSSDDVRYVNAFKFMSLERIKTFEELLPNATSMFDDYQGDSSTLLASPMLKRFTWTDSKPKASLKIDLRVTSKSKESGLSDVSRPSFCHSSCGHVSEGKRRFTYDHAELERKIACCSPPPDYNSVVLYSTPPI
Sequence of PRK2(h) (Q16513 whole entry): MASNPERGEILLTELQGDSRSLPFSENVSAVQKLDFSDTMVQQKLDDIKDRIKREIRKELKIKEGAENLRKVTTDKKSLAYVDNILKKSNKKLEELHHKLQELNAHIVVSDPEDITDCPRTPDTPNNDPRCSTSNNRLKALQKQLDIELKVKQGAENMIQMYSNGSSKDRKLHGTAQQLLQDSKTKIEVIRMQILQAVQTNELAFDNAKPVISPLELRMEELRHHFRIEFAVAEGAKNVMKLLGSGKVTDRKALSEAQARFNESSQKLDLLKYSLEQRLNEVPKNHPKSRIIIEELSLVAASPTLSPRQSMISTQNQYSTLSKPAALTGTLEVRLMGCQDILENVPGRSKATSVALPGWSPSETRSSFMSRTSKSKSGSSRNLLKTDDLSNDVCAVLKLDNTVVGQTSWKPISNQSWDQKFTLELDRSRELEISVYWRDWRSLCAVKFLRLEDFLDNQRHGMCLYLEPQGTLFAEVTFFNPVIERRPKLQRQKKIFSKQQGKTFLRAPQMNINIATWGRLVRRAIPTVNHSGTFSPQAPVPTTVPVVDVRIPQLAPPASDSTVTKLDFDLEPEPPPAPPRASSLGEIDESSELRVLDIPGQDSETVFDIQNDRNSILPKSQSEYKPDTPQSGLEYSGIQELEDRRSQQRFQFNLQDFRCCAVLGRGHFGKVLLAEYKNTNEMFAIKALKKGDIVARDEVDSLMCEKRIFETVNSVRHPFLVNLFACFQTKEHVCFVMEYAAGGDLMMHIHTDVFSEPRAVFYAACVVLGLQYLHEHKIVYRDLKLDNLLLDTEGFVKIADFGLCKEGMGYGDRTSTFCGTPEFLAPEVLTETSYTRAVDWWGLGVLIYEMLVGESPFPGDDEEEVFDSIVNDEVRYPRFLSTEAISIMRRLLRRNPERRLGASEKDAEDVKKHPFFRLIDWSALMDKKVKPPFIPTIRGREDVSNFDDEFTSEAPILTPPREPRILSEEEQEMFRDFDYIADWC

Sequence	% activity (CK1δ(h))	% activity (cKit(D816V)(h))	% activity (DDR2(h))	% activity (Fgr(h))	% activity (Flt1(h))	% activity (Mer(h))	% activity (PAK5(h))	% activity (PKCδ(h))	% activity (PRK2(h))	% activity (SAPK2a(T106M)(h))	% activity (SIK(h))	% activity (Tie2(Y897S)(h))	% activity (WNK2(h))
FAKLAARLYRKALARQLGVAA [MMI-0300]	92%	60%	94%	60%	69%	52%	110%	101%	33%	97%	66%	83%	64%
HRRIKAWLKKIKALARQLGVAA [MMI-0500]	78%	30%	79%		27%	17%	125%	61%	7%	32%	40%	80%	8%
KAFAKLAARLYRKALARQLGVAA [MMI-0400]	93%	35%	95%	47%	48%	50%		90%	27%	99%	68%	87%	54%
YARAAARQARAKALNRQLGVA [MMI-0200]	92%	118%		71%	96%	90%	100%	101%	74%	100%		85%	94%
